Assay results from paper PMC6528793 (Structure (London, England : 1993), 2017).

B1: AnkB C-terminal ankyrin domain (residues 54-168) (domain or fragment)
chain: HIKRELWGNLMVAARSNNLEEVKKILKKGIDPTQTNSYHLNRTPLLAAIEGKAYQTANYLWRKYTFDPNFKDNYGDSPISLLKKQLANPAFKDKEKKQIRALIRGMQEEKIAQSK

Experiments:
[1] = molecular target: B1; assay: NMR titration
crystal structure = molecular target: the molecule itself; assay: crystal structure

Binder | Kd [1] | binding result (crystal structure)
QEEKI [QEEKI pentapeptide derived from the AnkB C-terminus] | > 8 mM | –
B1 | – | binds
